The target of this assay is recombinant extracellular region of human calsyntenin-1 (residues 29-859) (human) (UniProt O94985). The assay is described as follows: SPR.
Chain of UniProt O94985 (O94985 29-859): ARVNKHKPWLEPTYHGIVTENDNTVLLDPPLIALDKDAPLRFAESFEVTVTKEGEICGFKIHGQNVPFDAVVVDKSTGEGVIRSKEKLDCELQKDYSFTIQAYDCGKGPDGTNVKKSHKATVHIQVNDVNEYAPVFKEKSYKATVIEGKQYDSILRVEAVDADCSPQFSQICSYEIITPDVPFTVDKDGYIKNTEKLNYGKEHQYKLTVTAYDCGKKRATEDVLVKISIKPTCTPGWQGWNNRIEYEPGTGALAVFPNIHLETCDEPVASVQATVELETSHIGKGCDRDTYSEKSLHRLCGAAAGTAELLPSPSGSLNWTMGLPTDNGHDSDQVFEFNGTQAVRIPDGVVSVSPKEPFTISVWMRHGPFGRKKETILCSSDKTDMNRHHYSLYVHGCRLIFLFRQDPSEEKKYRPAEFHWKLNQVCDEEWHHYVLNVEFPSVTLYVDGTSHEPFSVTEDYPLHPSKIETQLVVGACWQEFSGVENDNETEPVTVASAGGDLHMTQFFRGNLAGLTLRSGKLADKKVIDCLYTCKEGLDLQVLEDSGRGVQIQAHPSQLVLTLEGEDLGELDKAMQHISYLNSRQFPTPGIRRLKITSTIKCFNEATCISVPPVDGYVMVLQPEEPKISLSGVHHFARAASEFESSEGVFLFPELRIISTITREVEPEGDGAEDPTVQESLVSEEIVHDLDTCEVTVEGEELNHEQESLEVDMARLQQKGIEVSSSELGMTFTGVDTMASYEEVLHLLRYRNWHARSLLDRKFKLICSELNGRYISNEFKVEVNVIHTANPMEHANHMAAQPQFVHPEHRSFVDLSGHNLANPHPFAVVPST

For “fibrillin-1 fragment PF1 (from UniProt P35555 45-2731) (domain or fragment)”, the Kd is 240 nM.
